Test results published in US20240360228A1 (BIOLEGEND, published 2024).
Each block holds one molecule with its values, some of them ahead of it.

Key:
human CCR8 [1] = target: T1, human CCR8 (human, UniProt P51685 1-355); assay: flow blocking, PBMC CCR8+CD4+; competitor PE-433H
T1 construct: Native CCR8 on human PBMC (CCR8+ CD3+ or CCR8+ CD4+ lymphocytes); also called chemokine (C-C motif) receptor 8
In short: (§1)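 Human PBMC (100 μL suspension) were pre-blocked with 10 μg of each unlabelled anti-CCR8 antibody or isotype control. Cells were then stained 15 min in the dark with 0.25 μg of the PE-conjugated competitor antibody plus anti-CD4 or anti-CD3. Read-out by flow cytometry as MFI on CCR8+CD4+ or CCR8+CD3+ lymphocytes.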

human CCR8 [2] = target: T1, human CCR8; assay: flow blocking, PBMC CCR8+CD4+; competitor PE-AB13
In short: as §1

human CCR8 [3] = target: T1, human CCR8; assay: flow blocking, PBMC CCR8+CD4+; competitor PE-AB3
In short: (§2)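 Read-out: PE MFI of CCR8+ CD4+ or CD3+ lymphocytes by flow cytometry. Cell suspension was first blocked with 10 μg unlabeled antibody or isotype, then given 0.25 μg PE-labelled competitor with anti-CD4/CD3 for 15 min, dark, washed twice. Percent blocking is 100 minus MFI ratio versus isotype.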

human CCR8 [4] = target: T1, human CCR8; assay: flow blocking, PBMC CCR8+CD4+; competitor PE-AB5
In short: as §2

human CCR8 [5] = target: T1, human CCR8; assay: flow blocking, PBMC CCR8+CD4+; competitor PE-AB10
In short: as §2

human CCR8 [6] = target: T1, human CCR8; assay: flow blocking, PBMC CCR8+CD4+; competitor PE-AB1
In short: as §2

human CCR8 [7] = target: T1, human CCR8; assay: flow blocking, PBMC CCR8+CD3+; competitor PE-AB14
Method: (§3) For blocking studies, 100 μL of the cell suspension were incubated with 10 μg purified isotype control, AB1, AB2, AB3, AB4, AB5, AB8, AB9, AB10, AB11, AB12, AB13, AB14, AB15, and Commercial ABI antibodies, or isotype control, as blocking agents.
(§4) After incubation with the blocking agent, the cells were incubated with 0.25 μg of the indicated PE-conjugated antibody plus anti-human CD4 APC or anti-human CD3 for another 15 minutes in the dark and then washed 2 times with Cell Staining Buffer, and acquired in a FACSCanto II flow cytometer (BD Biosciences); the data was analyzed using FCS Express (De Novo Software); MFI correspond to the CCR8+ CD4+ lymphocytes or CCR8+ CD3+ lymphocytes.
(§5) Percentage original MFI was calculated by dividing the MFI of samples blocked with AB1, AB2, AB3, AB4, AB5, AB6, AB7, AB8, AB9, AB10, AB11, AB12, AB13, AB14, AB15, and Commercial ABI antibodies, by the MFI of samples blocked with the corresponding isotype control. This value was subtracted from 100 to get a blocking percentage. The formula is shown below: […]

human CCR8 [8] = target: T1, human CCR8; assay: flow blocking, PBMC CCR8+CD3+; competitor PE-AB13
Method: as §3, §4, §5

human CCR8 [9] = target: T1, human CCR8; assay: flow blocking, PBMC CCR8+CD3+; competitor PE-AB10
Method: as §3, §4, §5

human CCR8 [10] = target: T1, human CCR8; assay: flow blocking, PBMC CCR8+CD4+; competitor PE-AB2
In short: as §2

human CCR8 [11] = target: T1, human CCR8; assay: flow blocking, PBMC CCR8+CD3+; competitor PE-L263G8
Method: as §3, §4, §5

human CCR8 [12] = target: T1, human CCR8; assay: flow blocking, PBMC CCR8+CD4+; competitor PE-AB11
In short: as §2

human CCR8 [13] = target: T1, human CCR8; assay: flow blocking, PBMC CCR8+CD4+; competitor PE-AB14
In short: as §1

human CCR8 [14] = target: T1, human CCR8; assay: flow blocking, PBMC CCR8+CD3+; competitor PE-AB6
Method: as §3, §4, §5

human CCR8 [15] = target: T1, human CCR8; assay: flow blocking, PBMC CCR8+CD4+; competitor PE-AB4
In short: as §2

human CCR8 [16] = target: T1, human CCR8; assay: flow blocking, PBMC CCR8+CD3+; competitor PE-433H
Method: as §3, §4, §5

human CCR8 [17] = target: T1, human CCR8; assay: flow blocking, PBMC CCR8+CD3+; competitor PE-AB5
Method: as §3, §4, §5

human CCR8 [18] = target: T1, human CCR8; assay: flow blocking, PBMC CCR8+CD3+; competitor PE-AB12
Method: as §3, §4, §5

[19] = target: human chemokine (C-C motif) receptor 8 (CCR8) (human) (UniProt P51685); assay: flow cytometry blocking, PBMC CCR8+ CD4+ cells; competitor PE-AB6 (its MFI is read)
Sequence of human chemokine (C-C motif) receptor 8 (CCR8) (human) (P51685 whole entry): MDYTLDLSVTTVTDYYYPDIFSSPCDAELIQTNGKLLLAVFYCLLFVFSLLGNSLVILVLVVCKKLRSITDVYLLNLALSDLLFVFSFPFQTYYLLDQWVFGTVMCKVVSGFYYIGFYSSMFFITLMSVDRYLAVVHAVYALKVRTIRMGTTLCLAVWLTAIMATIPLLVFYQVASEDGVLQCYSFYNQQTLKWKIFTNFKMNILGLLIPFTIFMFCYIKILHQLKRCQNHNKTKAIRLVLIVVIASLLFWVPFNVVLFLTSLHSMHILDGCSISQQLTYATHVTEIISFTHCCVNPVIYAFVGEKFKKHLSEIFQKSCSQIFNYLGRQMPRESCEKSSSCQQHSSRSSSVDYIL

human CCR8 [20] = target: T1, human CCR8; assay: flow blocking, PBMC CCR8+CD3+; competitor PE-AB15
Method: as §3, §4, §5

human CCR8 [21] = target: T1, human CCR8; assay: flow blocking, PBMC CCR8+CD4+; competitor PE-AB12
In short: as §2

human CCR8 [22] = target: T1, human CCR8; assay: flow blocking, PBMC CCR8+CD4+; competitor PE-AB6
human CCR8 [23] = target: T1, human CCR8; assay: flow blocking, PBMC CCR8+CD3+; competitor PE-AB11
Method: as §3, §4, §5

human CCR8 [24] = target: T1, human CCR8; assay: flow blocking, PBMC CCR8+CD3+; competitor PE-AB7
Method: as §3, §4, §5

human CCR8 [25] = target: T1, human CCR8; assay: flow blocking, PBMC CCR8+CD4+; competitor PE-AB15
In short: as §2

human CCR8 [26] = target: T1, human CCR8; assay: flow blocking, PBMC CCR8+CD3+; competitor PE-AB8
Method: as §3, §4, §5

human CCR8 [27] = target: T1, human CCR8; assay: flow, PBMC CCR8+CD3+; PE-L263G8 staining after isotype block
[28] = target: T2, human chemokine (C-C motif) receptor 8 (CCR8) (human, UniProt P51685 1-355); assay: flow cytometry blocking, PBMC CCR8+ CD4+ cells; competitor PE-AB10 (its MFI is read)
T2 construct: On human peripheral blood lymphocytes / PBMC (native) or on human CCR8 GFP-transfected Ba/F3 cells; also called hCCR8; human CCR8
T2 sequence (P51685 whole entry): as above
Method: as §3, §4, §5

[29] = target: T2, human chemokine (C-C motif) receptor 8 …; assay: flow cytometry blocking, PBMC CCR8+ CD4+ cells; competitor PE-AB2 (its MFI is read)
Method: as §3, §4, §5

[30] = target: T2, human chemokine (C-C motif) receptor 8 …; assay: flow cytometry blocking, PBMC CCR8+ CD4+ cells; competitor PE-AB12 (its MFI is read)
Method: as §3, §4, §5

[31] = target: T2, human chemokine (C-C motif) receptor 8 …; assay: flow cytometry blocking, PBMC CCR8+ CD4+ cells; competitor PE-AB3 (its MFI is read)
Method: as §3, §4, §5

[32] = target: T2, human chemokine (C-C motif) receptor 8 …; assay: cell-based or functional assay
[33] = target: T2, human chemokine (C-C motif) receptor 8 …; assay: flow cytometry blocking, PBMC CCR8+ CD4+ cells; competitor PE-AB5 (its MFI is read)
Method: as §3, §4, §5

[34] = target: T2, human chemokine (C-C motif) receptor 8 …; assay: cell-based or functional assay; remark: listed apart in the source
[35] = target: T2, human chemokine (C-C motif) receptor 8 …; assay: flow cytometry blocking, PBMC CCR8+ CD4+ cells; competitor PE-AB4 (its MFI is read)
Method: as §3, §4, §5

[36] = target: T2, human chemokine (C-C motif) receptor 8 …; assay: flow cytometry blocking, PBMC CCR8+ CD4+ cells; competitor PE-AB13 (its MFI is read)
Method: as §3, §4, §5

[37] = target: T2, human chemokine (C-C motif) receptor 8 …; assay: flow cytometry blocking, PBMC CCR8+ CD4+ cells; competitor PE-AB11 (its MFI is read)
Method: as §3, §4, §5

[38] = target: T2, human chemokine (C-C motif) receptor 8 …; assay: flow cytometry blocking, PBMC CCR8+ CD4+ cells; competitor PE-AB15 (its MFI is read)
Method: as §3, §4, §5

[39] = target: T2, human chemokine (C-C motif) receptor 8 …; assay: flow cytometry blocking, PBMC CCR8+ CD4+ cells; competitor PE-AB14 (its MFI is read)
Method: as §3, §4, §5

[40] = target: T2, human chemokine (C-C motif) receptor 8 …; assay: flow cytometry blocking, PBMC CCR8+ CD4+ cells; competitor PE-AB1 (its MFI is read)
Method: as §3, §4, §5

[41] = target: T2, human chemokine (C-C motif) receptor 8 …; assay: flow cytometry blocking, PBMC CCR8+ CD4+ cells; competitor PE-ABII (its MFI is read)
Method: as §3, §4, §5

[42] = target: T2, human chemokine (C-C motif) receptor 8 …; assay: flow cytometry blocking, PBMC CCR8+ CD4+ cells; competitor PE-AB6 (its MFI is read)
Method: as §3, §4, §5

human CCR8 [43] = target: T1, human CCR8; assay: flow, PBMC CCR8+CD3+; PE-433H staining after isotype block
human CCR8 [44] = target: T1, human CCR8; assay: flow, PBMC CCR8+CD4+; PE-433H staining after isotype block

T1 sequence (P51685 whole entry): as above

% Blocking (human CCR8 [1]): 0% | % Blocking (human CCR8 [2]): 0% | % Blocking (human CCR8 [3]): 0% | % Blocking (human CCR8 [4]): 0% | % Blocking (human CCR8 [5]): 0% | % Blocking (human CCR8 [6]): 0% | % Blocking (human CCR8 [7]): 0% | % Blocking (human CCR8 [8]): 0% | % Blocking (human CCR8 [9]): 0% | % Blocking (human CCR8 [10]): 0% | % Blocking (human CCR8 [11]): 0% | % Blocking (human CCR8 [12]): 0% | % Blocking (human CCR8 [13]): 0% | % Blocking (human CCR8 [14]): 0% | % Blocking (human CCR8 [15]): 0% | % Blocking (human CCR8 [16]): 0% | % Blocking (human CCR8 [17]): 0% | % Blocking (human CCR8 [18]): 0% | % Blocking [19]: 0% | % Blocking (human CCR8 [20]): 0% | % Blocking (human CCR8 [21]): 0% | % Blocking (human CCR8 [22]): 0% | % Blocking (human CCR8 [23]): 0% | % Blocking (human CCR8 [24]): 0% | % Blocking (human CCR8 [25]): 0% | % Blocking (human CCR8 [26]): 0%
Molecule: isotype control (antibody)

MFI (human CCR8 [43]): 886 | % Positive cells (human CCR8 [44]): 1.76%
B2: Commercial 433H (antibody, from another filing, V domains shown)
VH: EVQLVETGGGLVQPKGSLRLSCAASGFPFNTFAMNWVRQAPGKGLEWLARIRSKSNNYATYYADSVKDRFTISRDDSRRMLYLLMNNVKFEDTAIYYCVRGKENNYGYAMDYWGQGTSVTVSS
VL: DIVMTQAAPSVPVTPGESVSISCRSSQSLLHSNGNTYLYWFLQRPGQSPQLLIYRMSNLASGVPDRFSGSGSGTAFTLRISRVEAEDVGVYYCMQHLEYPFTFGIGTKLELKR

The remaining lines, values behind:

Molecule: Commercial L263G8 (antibody)
MFI (human CCR8 [27]): 674

B1: AB11 (antibody, V domains shown)
VH: EVQLVESGGGLVQPKGSLKLSCAASGFAFNTYAMNWVRQAPGKGLEWIARLRSKSNFYATYYADSVKDRFTISRDDSQSMLYLQMNNLKTEDTAVYYCVRGRELGPSYAMDYWGQGTSVTVSS
VL: DIVMTQAAPSVPVTPGESVSISCRSSKSLLHSNGNTYLYWFLQRPGQSPQLLIYRMSNLASGVPDRFSGSGSGTAFTLRISRVEAEDVGVYYCMQHLEYPYTFGGGTKLEIK
notes: Hybridoma monoclonal; also called antibody 11; clone 11
% Blocking [28]: 34.5% | MFI [28]: 661 | % Blocking [29]: -53.5% | MFI [29]: 1030 | % Blocking [30]: 0.83% | MFI [30]: 968 | % Blocking [31]: -61.7% | MFI [31]: 1120 | % hCCR8-Ba/F3 - THP-1 complexes [32]: 1.12% | % Blocking [33]: -36% | MFI [33]: 1020 | ratio of Target/Control cells after AB11 plus complement [34]: 0.103 | % Blocking [35]: -53.4% | MFI [35]: 1050 | % Blocking [36]: 7.44% | MFI [36]: 867 | % Blocking [37]: 25.3% | MFI [37]: 674 | % Blocking [38]: -75.1% | MFI [38]: 1390 | % Blocking [39]: -1190% | MFI [39]: 11400 | % Blocking [40]: -48.1% | MFI [40]: 971 | % Blocking [41]: 16.6% | MFI [41]: 924 | % Blocking [42]: -36.2% | MFI [42]: 1070
